Consider 3 substances from patent US20220387578A1.

In experiment [1] the target is H1 HA A/Texas/36/1991 (H1N1), recombinant soluble trimer (influenza A virus).
The target of experiment [2] is H1 HA A/Solomon Islands/03/2006 (H1N1), recombinant soluble trimer (influenza A virus).
For experiment [3], the target named is H3 HA A/Texas/50/2012, recombinant soluble trimer (influenza A virus).

For “rFluA-20 heavy chain mutant C101A (antibody)”, the results for the EC50 in experiment [1], in experiment [2] and in experiment [3] were 0.15 µg/mL, 0.2 µg/mL and 0.39 µg/mL, respectively.
On to “rFluA-20 light chain mutant N53A (antibody)”, for which the EC50 in experiment [1] came out at 0.04 µg/mL; in experiment [2], 0.05 µg/mL; in experiment [3] it was 0.09 µg/mL.
Consider “rFluA-20 light chain mutant Q55A (antibody)”, for which the EC50 in experiment [1] amounted to 0.23 µg/mL. Further, in experiment [2], the EC50 relative to wild type rFluA-20 was over 100 fold.
